Consider four molecules from paper PMC10139187, “Natural Isoforms of Listeria monocytogenes Virulence Factor Inlb Differ in c-Met Binding Efficiency and Differently Affect Uptake and Survival Listeria in Macrophage †” (International Journal of Molecular Sciences, 2023).

B1: idInlBCC9, internalin domain (receptor-binding domain) of InlB, isoform of clonal complex CC9 (lineage II) (domain or fragment)
chain: AKVQAETITVPTPIKQIFSDDAFAETIKDNLKKKSVTDAVTQNELNSIDQIIANNSDIKSVQGIQYLPNVTKLFLNGNKLTDIKPLANLKNLGWLFLDENKVKDLSSLKDLKKLKSLSLEHNGISDINGLVHLPQLESLYLGNNKITDITVLSRLTKLDTLSLEDNQISDIVPLAGLTKLQNLYLSKNHISDLRALAGLKNLDVLELFSQECLNKPINHQSNLVVPNTVKNTDGSLVTPEIISDDGDYEKPNVKWHLPEFTNEVSFIFYQPVTIGKAKARFHGRVTQPLKE
modifications: stained with RED-tris-NTA (on the His tag)
notes: 321 aa long; also called idInlB-His-Tag; source: E. coli BL21, purified (HisTrap FF Crude column, dialysed against PBS)

Assay in all cases: MST; idInlB-His-Tag stained with RED-tris-NTA kept constant at 50 nM; unlabeled receptor in twofold dilutions from 0.076 nM to 2.5 uM; PBST (PBS with 0.05% Tween-20); Monolith NT.115, LED power 80%, MST power 40%; fitted to a 1:1 binding model; mean of three independent experiments
The target of assay [1] is idInlBCC7, internalin domain (receptor-binding domain) of InlB, isoform of clonal complex CC7 (lineage II) (Listeria monocytogenes).
Assay [2] concerns the target idInlBCC1, internalin domain (receptor-binding domain) of InlB, isoform of clonal complex CC1 (lineage I) (Listeria monocytogenes).
For assay [3], the target named is T1, chimeric protein HGFR/Fc (c-Met extracellular domain as part of a soluble chimera protein) (human, UniProt P08581 25-932).
T1 construct: Hepatocyte growth factor receptor (c-Met, HGFR), human, extracellular domain; natural c-Met is cut into an alpha and a beta chain, written here as one chain; also called human c-Met; source: bought: Sigma-Aldrich (H0536)
T1 sequence (P08581 25-932, change not shown): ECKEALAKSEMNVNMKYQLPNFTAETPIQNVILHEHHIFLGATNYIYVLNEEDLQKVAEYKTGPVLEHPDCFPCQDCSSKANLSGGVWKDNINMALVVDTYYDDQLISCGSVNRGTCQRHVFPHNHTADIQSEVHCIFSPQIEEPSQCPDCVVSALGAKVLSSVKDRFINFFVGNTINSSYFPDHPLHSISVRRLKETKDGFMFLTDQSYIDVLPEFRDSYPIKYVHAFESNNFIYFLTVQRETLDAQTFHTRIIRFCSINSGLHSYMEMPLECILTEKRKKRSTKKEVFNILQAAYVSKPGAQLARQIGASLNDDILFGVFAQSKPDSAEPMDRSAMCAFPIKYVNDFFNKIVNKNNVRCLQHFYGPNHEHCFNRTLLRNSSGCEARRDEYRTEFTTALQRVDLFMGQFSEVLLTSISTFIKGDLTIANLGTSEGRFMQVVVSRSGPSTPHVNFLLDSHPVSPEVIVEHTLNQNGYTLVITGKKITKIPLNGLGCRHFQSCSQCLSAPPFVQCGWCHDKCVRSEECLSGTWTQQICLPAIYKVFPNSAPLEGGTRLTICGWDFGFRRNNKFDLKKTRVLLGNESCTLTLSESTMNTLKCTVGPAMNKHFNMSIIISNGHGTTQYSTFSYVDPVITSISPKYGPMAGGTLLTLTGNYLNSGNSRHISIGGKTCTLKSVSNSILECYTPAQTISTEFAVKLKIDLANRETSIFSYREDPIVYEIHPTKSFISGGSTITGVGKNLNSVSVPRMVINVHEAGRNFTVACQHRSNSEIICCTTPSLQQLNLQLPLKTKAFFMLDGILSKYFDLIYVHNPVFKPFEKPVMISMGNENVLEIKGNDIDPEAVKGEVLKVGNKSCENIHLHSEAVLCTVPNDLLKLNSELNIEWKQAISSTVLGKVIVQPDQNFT
As to conditions: both partners purified.

Assay [4] deals with B1. As to conditions: both partners purified.

For the molecule “chimeric protein HGFR/Fc (c-Met extracellular domain as part of a soluble chimera protein) (from UniProt P08581 25-932) (Fc fusion)”, the results for the Kd in assay [1] and in assay [2] were 58.7 nM and 7.4 nM, respectively.

Take “gC1qR (human) (from UniProt Q07021 74-282) (receptor)”: the Kd in assay [1] was found to be 10.2 nM; in assay [2] it was 7.4 nM.

In the case of B1, in assay [3], the affinity, expressed as Kd, was 93.6 nM.

B2: gC1qR (human) (receptor)
chain: LHTDGDKAFVDFLSDEIKEERKIQKHKTLPKMSGGWELELNGTEAKLVRKVAGEKITVTFNINNSIPPTFDGEEEPSQGQKVEEQEPELTSTPNFVVEVIKNDDGKKALVLDCHYPEDEVGQEDEAESDIFSIREVSFQSTGESEWKDTNYTLNTDSLDWALYDHLMDFLADRGVDNTFADELVELSTALEHQEYITFLEDLKSFVKSQ
notes: gC1qR (receptor of the globular heads of C1q), human; the catalogue number may tell them; also called human gC1qR; source: bought: Invitrogen (#11874H08E25)
With B2, the Kd in assay [4] was 21.5 nM.
